# Source: US20230235334A1
# Molecular target: OmpR fused to the VP64 activation domain (E. coli)
# Assay: cell-based or functional assay
substance,measurement,value
EnvZm2 (T247A) (from UniProt A0A4P7TSF2 1-450) (enzyme),"fold-change of OmpR-driven mKate2 median fluorescence output (6xmCMV37 promoter, HEK-293FT cells), EnvZm2 (kinase) against EnvZm1 (D244A phosphatase, SEQ ID NO: 2), at the highest levels of OmpR",40 fold
same,"fold-change of mKate2 median fluorescence output from the strongest OmpR promoter when the kinase (EnvZm2) or the phosphatase (EnvZm1) was present, HEK-293FT cells",500 fold
same,"relative kinase strength against EnvZm1 phosphatase, from OmpR-driven mKate2 output in kinase titrations (Open-loop against Const. P), HEK-293FT cells",< 3 fold
